biological target: T1, COVID-19 nucleocapsid protein (N-protein) (severe acute respiratory syndrome …, UniProt P0DTC9 1-419); experiment: bio-layer interferometry (BLI)
T1 construct: also called nucleocapsid protein (N-protein) of severe acute respiratory syndrome coronavirus 2 (SARS-CoV-2)

ACLEAGQRCQWGRTCA (Ci, Cii and Ciii cysteines covalently bound to TATA scaffold) [BCY17644] and ACLEAGQRCQWSRTCA (Ci, Cii and Ciii cysteines covalently bound to TATA scaffold) [BCY17651] are within 1.5-fold of each other in Kd: 675 nM for the first, 686 nM for the second.

ACLAPGQRCQWGRTCA (Ci, Cii and Ciii cysteines covalently bound to TATA scaffold) [BCY17645] and ACLPLGARCNWTRVCA (Ci, Cii and Ciii cysteines covalently bound to TATA scaffold) [BCY17646] are within 1.5-fold of each other in Kd: 227 nM for the first, 198 nM for the second.

Going from ACLPLGARCQWQRECA (Ci, Cii and Ciii cysteines covalently bound to TATA scaffold) [BCY17648] to ACSEEYMFCNNRYVVCA (Ci, Cii and Ciii cysteines covalently bound to TATA scaffold) [BCY16577], the Kd falls from 1860 nM to 934 nM (2-fold). The second binds more tightly here.

First: ACLEAGQRCNWTRVCA (Ci, Cii and Ciii cysteines covalently bound to TATA scaffold) [BCY17649]
Second: ACLEAGQRCQWQRECA (Ci, Cii and Ciii cysteines covalently bound to TATA scaffold) [BCY17650]
The Kd of the first is 3.3-fold lower: 596 nM for the first, 1990 nM for the second.

Compared with ACLAPGQRCNWTRVCA (Ci, Cii and Ciii cysteines covalently bound to TATA scaffold) [BCY17652], ACLAPGQRCQWQRECA (Ci, Cii and Ciii cysteines covalently bound to TATA scaffold) [BCY17653] is 5.6-fold higher in Kd: 142 nM for the first, 799 nM for the second. The first binds more tightly here.

ACDDWMIGCRITYKCA (Ci, Cii and Ciii cysteines covalently bound to TATA scaffold) [BCY17642] and ACENFQLGCRITYKCA (Ci, Cii and Ciii cysteines covalently bound to TATA scaffold) [BCY17643] are within 1.5-fold of each other in Kd: 3940 nM for the first, 4230 nM for the second.

First: ACTNLQWAMCYITGNCA (Ci, Cii and Ciii cysteines covalently bound to TATA scaffold) [BCY18172]
Second: ACTNLDWAYCYIHNQCA (Ci, Cii and Ciii cysteines covalently bound to TATA scaffold) [BCY19570]
The Kd of the first is 2.8-fold higher: 2740 nM for the first, 978 nM for the second. The second binds more tightly here.

ACTNLEWAYCYIHNECA (Ci, Cii and Ciii cysteines covalently bound to TATA scaffold) [BCY19571] and ACRVTLDACWDTPCA (Ci, Cii and Ciii cysteines covalently bound to TATA scaffold) [BCY16579] are within 1.5-fold of each other in Kd: 958 nM for the first, 759 nM for the second.

First: ACTNLQWADCYINHVCA (Ci, Cii and Ciii cysteines covalently bound to TATA scaffold) [BCY19458]
Second: ACTNLEWADCYINHNCA (Ci, Cii and Ciii cysteines covalently bound to TATA scaffold) [BCY19572]
The Kd of the first is 2.3-fold higher: 2290 nM for the first, 1000 nM for the second.

Compared with ACTNLEWANCYINHNCA (Ci, Cii and Ciii cysteines covalently bound to TATA scaffold) [BCY19573], ACAWDEYYQVCLPCA (Ci, Cii and Ciii cysteines covalently bound to TATA scaffold) [BCY16580] is 5.6-fold higher in Kd: 1190 nM for the first, 6680 nM for the second.
